Results reported in the supplement of paper PMC7877785.
± gives the uncertainty stated by the source.

Test: self-splicing fitness, log relative to wild type (ln ratio); higher = more splicing; Tetrahymena group I intron in knt gene, E. coli kanamycin selection, DiMSum; sequences stand for … in CUCUCU…GGAGGGAAAAGUUAUCAGGCAUGCACCUGGUAGCUAGUCUUUAAACCAAUAGAUUGCAUCGGUUUAAAAGGCAAGACCGUCAAAUUGCGGGAAAGGGGUCAACAGCCGUUCAGUACCAAGUCUCAGGGGAAACUUUGAGAUGGCCUUGCAAAGGGUAUGGUAAUAAGCUGACGGACAUGGUCCUAACCACGCAGCCAAGUCCUAAGUCAACAGAUCUUCUGUUGAUAUGGAUGCAGUUCACAGACUAAAUGUCGGUCGGGGAAGAUGUAUUCUUCUCAUAAGAUAUAGUCGGACCUCUCCUUAAUGGGAGCUAGCGGAUGAAGUGAUGCAACACUGGAGCCGCUGGGAACUAAUUUGUAUGCGAAAGUAUAUUGAUUAGUUUUGGAGUACUCGUGGUCG
Procedure, shortened: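 Six replicate transformations of E. coli BL21(DE3) with a pET-22b(+) library were grown overnight at 37°C or 30°C. The library randomised all eight P1ex-region intron nucleotides, the intron lying in the knt kanamycin-resistance gene, and plates were LB agar with or without 25 μg/mL kanamycin plus 100 μg/mL carbenicillin, 50 μM IPTG and 0.2% rhamnose. Pooled colonies were amplicon-sequenced on an Illumina HiSeq 2500, and fitness is the DiMSum error-weighted combination of wild-type-normalised replicate fold changes, kanamycin versus none.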

Row | Sequence | self-splicing fitness (ln) (30 °C) | self-splicing fitness (ln) (37 °C)
1 | ACCCAGCAAUAUUACGUUUG | -4.2 ± 0.13 | -2.44 ± 0.11
2 | CAAUAGCAAUAUUACGUCUC | -2.8 ± 0.18 | -3.4 ± 0.33
3 | CACGAGCAAUAUUACGCAGC | – | -1.29 ± 0.35
4 | GCAUAGCAAUAUUACGAUAA | -2.1 ± 0.15 | -1.27 ± 0.13
5 | UAUUAGCAAUAUUACGUUAA | -1.91 ± 0.36 | -1.53 ± 0.18
6 | AGACAGCAAUAUUACGGGCA | -1.18 ± 0.075 | -0.503 ± 0.079
7 | GGCAAGCAAUAUUACGGAUU | -0.462 ± 0.11 | -0.427 ± 0.13
8 | CCGCAGCAAUAUUACGUUAC | -3.36 ± 0.14 | -2.29 ± 0.14
9 | UGCUAGCAAUAUUACGCUUA | -1.31 ± 0.11 | -0.517 ± 0.12
10 | GACGAGCAAUAUUACGUUCG | -4.1 ± 0.24 | -2.24 ± 0.23
11 | CCAAAGCAAUAUUACGGUAA | -3.35 ± 0.29 | -2.91 ± 0.23
12 | GCCUAGCAAUAUUACGAAGG | -3.05 ± 0.17 | -2.65 ± 0.3
13 | GCCCAGCAAUAUUACGAAUC | -0.771 ± 0.083 | -0.457 ± 0.086
14 | CGAUAGCAAUAUUACGUGCU | -3.92 ± 0.34 | -1.34 ± 0.17
15 | AGUUAGCAAUAUUACGUGCU | -2.35 ± 0.14 | -1.78 ± 0.21
16 | CAUCAGCAAUAUUACGAAAC | -3.66 ± 0.47 | -3.45 ± 0.32
17 | GGGGAGCAAUAUUACGUCUG | -2.55 ± 0.37 | -1.24 ± 0.24
18 | GCCUAGCAAUAUUACGAUAC | -2.39 ± 0.11 | -0.543 ± 0.1
19 | CUGGAGCAAUAUUACGAGGU | -3.48 ± 0.23 | -2.11 ± 0.17
20 | CUAGAGCAAUAUUACGACAU | -3.918 ± 0.03 | -2.71 ± 0.043
21 | AACUAGCAAUAUUACGAAGC | -2.35 ± 0.4 | -0.29 ± 0.35
22 | UUACAGCAAUAUUACGCGCA | -0.521 ± 0.11 | -0.892 ± 0.12
23 | AAUCAGCAAUAUUACGUUCA | -1.2 ± 0.091 | -0.527 ± 0.11
24 | GCUUAGCAAUAUUACGCAGA | -2.62 ± 0.22 | -3.24 ± 0.43

Row | Sequence | self-splicing fitness (ln) (30 °C) | self-splicing fitness (ln) (37 °C)
25 | AUUUAGCAAUAUUACGUGGA | -3.25 ± 0.21 | -2.04 ± 0.16
26 | AAUAAGCAAUAUUACGACGC | -0.19 ± 0.093 | 0.0933 ± 0.12
27 | CACUAGCAAUAUUACGCAUU | -3.06 ± 0.23 | -2.17 ± 0.17
28 | UAACAGCAAUAUUACGAGGA | -3.13 ± 0.2 | -1.49 ± 0.14
29 | GGUGAGCAAUAUUACGUUCG | -2.65 ± 0.37 | -2.44 ± 0.32
30 | GGACAGCAAUAUUACGUCCA | -1.24 ± 0.13 | -0.889 ± 0.16
31 | ACUGAGCAAUAUUACGGAGG | -2.97 ± 0.18 | -2.76 ± 0.25
32 | GCGAAGCAAUAUUACGUAUC | -3.34 ± 0.3 | -0.83 ± 0.14
33 | UGGUAGCAAUAUUACGACGG | -1.49 ± 0.11 | -0.695 ± 0.13
34 | GAUGAGCAAUAUUACGCGAG | -0.593 ± 0.16 | -0.578 ± 0.2
35 | UAGGAGCAAUAUUACGCACA | -0.278 ± 0.33 | -0.212 ± 0.38
36 | CUGUAGCAAUAUUACGUACG | -1.43 ± 0.21 | -1.05 ± 0.19
37 | CGGUAGCAAUAUUACGUGCC | -1.18 ± 0.14 | -4.06 ± 0.34
38 | CCUAAGCAAUAUUACGAGUA | -2.5 ± 0.16 | -1.98 ± 0.18
39 | CGAGAGCAAUAUUACGGAAG | -3.57 ± 0.28 | -2.54 ± 0.23
40 | CUUCAGCAAUAUUACGCCCC | – | -1.14 ± 0.47
41 | GCUUAGCAAUAUUACGCGAU | -3.45 ± 0.34 | -1.69 ± 0.29
42 | AGUGAGCAAUAUUACGGUCG | -3.55 ± 0.24 | -1.97 ± 0.18
43 | CGGCAGCAAUAUUACGCACG | -2.17 ± 0.15 | -2.1 ± 0.23
44 | UCCGAGCAAUAUUACGGUGU | -1.74 ± 0.1 | -2.28 ± 0.17
45 | CAGAAGCAAUAUUACGAUUG | -1.92 ± 0.11 | -1.47 ± 0.12
46 | AUCAAGCAAUAUUACGGCUA | -0.209 ± 0.097 | 0.184 ± 0.11
47 | AUUUAGCAAUAUUACGAUGU | -1.08 ± 0.096 | 0.369 ± 0.11
48 | AGGUAGCAAUAUUACGAGCA | -1.33 ± 0.019 | -0.51 ± 0.034

Row | Sequence | self-splicing fitness (ln) (30 °C) | self-splicing fitness (ln) (37 °C)
49 | GGCCAGCAAUAUUACGGCGC | -1.79 ± 0.21 | -1.57 ± 0.34
50 | ACUGAGCAAUAUUACGAUAA | -2.94 ± 0.26 | -2.75 ± 0.32
51 | GGCGAGCAAUAUUACGUAUC | -1.61 ± 0.14 | -0.00113 ± 0.13
52 | GUAUAGCAAUAUUACGCCCC | -1.21 ± 0.2 | -0.594 ± 0.29
53 | UUACAGCAAUAUUACGAUUG | -1.76 ± 0.091 | -0.796 ± 0.1
54 | UGCUAGCAAUAUUACGGCAA | -0.895 ± 0.16 | -1.1 ± 0.16
55 | CUAUAGCAAUAUUACGGGCA | -3.19 ± 0.26 | -1.89 ± 0.18
56 | GGCAAGCAAUAUUACGGACG | -0.442 ± 0.089 | -0.416 ± 0.086
57 | CCAUAGCAAUAUUACGCGCA | -2.65 ± 0.27 | -2 ± 0.34
58 | CCUCAGCAAUAUUACGAGCG | -2 ± 0.094 | -1.05 ± 0.088
59 | GUAGAGCAAUAUUACGCCUG | -1.21 ± 0.31 | -0.594 ± 0.32
60 | GUGAAGCAAUAUUACGCGUC | -2.19 ± 0.19 | -0.692 ± 0.16
61 | GAAGAGCAAUAUUACGGAAA | -2.81 ± 0.14 | -2.93 ± 0.22
62 | CCCCAGCAAUAUUACGACUU | -3.29 ± 0.13 | -3 ± 0.22
63 | GAGUAGCAAUAUUACGGUCG | -1.15 ± 0.16 | -0.697 ± 0.19
64 | AGAAAGCAAUAUUACGUUCC | -2.59 ± 0.43 | -1.23 ± 0.39
65 | CGAAAGCAAUAUUACGACUU | -1.64 ± 0.12 | -0.99 ± 0.14
66 | UACAAGCAAUAUUACGGUGA | -1.28 ± 0.082 | -0.89 ± 0.1
67 | AAUUAGCAAUAUUACGACCU | 0.197 ± 0.19 | 0.333 ± 0.21
68 | AUGGAGCAAUAUUACGUAAA | -3.85 ± 0.26 | -2.09 ± 0.26
69 | UGGUAGCAAUAUUACGAUGC | -3.09 ± 0.5 | -1.82 ± 0.43
70 | GUGCAGCAAUAUUACGGCGG | -1.98 ± 0.11 | -1.1 ± 0.13
71 | CCGAAGCAAUAUUACGCGGA | -3.61 ± 0.43 | -1.78 ± 0.19
72 | UCCUAGCAAUAUUACGAGGG | -2.97 ± 0.25 | -2.7 ± 0.45

Row | Sequence | self-splicing fitness (ln) (30 °C) | self-splicing fitness (ln) (37 °C)
73 | UUCGAGCAAUAUUACGGGUU | -3.21 ± 0.22 | -2.78 ± 0.35
74 | CCGUAGCAAUAUUACGAGGG | -3.25 ± 0.18 | -0.352 ± 0.17
75 | GUACAGCAAUAUUACGCGUA | -3.44 ± 0.32 | -1.71 ± 0.24
76 | GGGGAGCAAUAUUACGCUUC | -3.28 ± 0.4 | -2.12 ± 0.49
77 | AUCCAGCAAUAUUACGAAUG | -1.94 ± 0.12 | -1.36 ± 0.11
78 | UUGCAGCAAUAUUACGCAGC | -2.41 ± 0.41 | -1.83 ± 0.3
79 | GUAUAGCAAUAUUACGUUGC | -2.83 ± 0.26 | –
80 | AGGGAGCAAUAUUACGGCGC | -2.78 ± 0.5 | -1.23 ± 0.35
81 | AGCCAGCAAUAUUACGUAGA | -2.62 ± 0.1 | -1.84 ± 0.15
82 | ACCGAGCAAUAUUACGCGUG | -1.41 ± 0.079 | -0.71 ± 0.08
83 | CUAAAGCAAUAUUACGUGAU | -1.35 ± 0.07 | -1.14 ± 0.11
84 | GCCGAGCAAUAUUACGGGAG | -3.67 ± 0.24 | -2.18 ± 0.24
85 | CUCGAGCAAUAUUACGAUAC | – | -2.64 ± 0.36
86 | UCUGAGCAAUAUUACGAUGA | -0.887 ± 0.12 | 0.0454 ± 0.18
87 | CAGAAGCAAUAUUACGGGUU | -3.12 ± 0.24 | -3.23 ± 0.21
88 | AUUCAGCAAUAUUACGUCUG | -2.09 ± 0.11 | -1.33 ± 0.11
89 | GGCUAGCAAUAUUACGCGUU | -0.656 ± 0.066 | -0.29 ± 0.08
90 | AAUCAGCAAUAUUACGGUGA | -0.138 ± 0.076 | 0.345 ± 0.087
91 | AAAAAGCAAUAUUACGGGUA | -1.61 ± 0.11 | -0.435 ± 0.11
92 | CAUAAGCAAUAUUACGCCAG | -1.42 ± 0.14 | -0.932 ± 0.19
93 | UUCAAGCAAUAUUACGAUCA | -0.845 ± 0.082 | -0.189 ± 0.093
94 | UUGGAGCAAUAUUACGUGCG | -1.73 ± 0.28 | -0.739 ± 0.21
95 | UAAGAGCAAUAUUACGCUCA | -2.37 ± 0.23 | -1.54 ± 0.18
96 | CUAAAGCAAUAUUACGUAUU | -3.61 ± 0.19 | -2.17 ± 0.24
